Results from patent US20180125921A1, “USE OF QBP1 PEPTIDE FOR THE INHIBITION OF MEMORY CONSOLIDATION” (CONSEJO SUPERIOR DE INVESTIGACIONES CIENTÍFICAS, priority 2015, published 2018).

Molecular target: Orb2A PLD (Drosophila), Q9VSR3
Test: cell-based or functional assay

- formation of M (mechanostable) conformers, AFM-SMFS: 16.1%
B1: minimal active core of QBP1 (QBP1 fragment), Ac-WKWWPGIF-NH2 (peptide)
peptide: Ac-WKWWPGIF-NH2
